Test results: the nanobody polyreactivity screen of Harvey et al. (2022)

Assay: yeast display, Sf9 membrane polyspecificity reagent, FACS + sequencing; frameworks hold sequencing errors
Method in brief: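 In a synthetic yeast display library (Saccharomyces cerevisiae BJ5465), nanobody expression was induced with galactose for 36–48 hours. FACS gates were set low and high (top ~1%) using anti-HA fluorescence for expression and streptavidin fluorescence for binding of the Sf9 membrane reagent. Each polyreactivity label is drawn from the gate of origin.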

Row | Sequence | polyreactivity (PSR sort gate)
1 | QVQLVESGGGLVQAGGRLRLSCAASGFIFLNYTMGWYRQAPGKEREMVADISNGSDRTYFADSLKGRFTISRENAKNTVYLQMNSLKPEDTAVYYCAKDRDFSSPPTESGFDYWGQGTQVTVSS | low polyreactivity
2 | QVQLVESGGGLVQAGGSLRLSCAASGFTFRGYAMGWYRPAPGKERELVAAITVRGGRTYYADSVKGRFTISRDNAKNTVYLQMNSLKPEETALYYCAKPVDRYTYSLYQQYDYWGQGTQVTVSS | high polyreactivity
3 | QVQLVESGGGLVQAGGSLRLSCAASGFTFAVYAMGWYRQAPGKEREFVADITYDGGSTYYADSVKGRFTISRDNAKNTVYLQMNSLKPEDTAVYYGAAERLGAFQTPSNVSKYYYWGQGSQVTVSS | low polyreactivity
4 | QVQRVESGGGLVQAGGSLRLSCAASGLTSKFYAMGWYRQAPRKERELVAAISGSGGSTYYADSVKGRFTISRDKAKNTVYLQMNSLKPEDTAVYYFAARYFGLRYYYWGQGTQVTVSS | high polyreactivity
5 | QVQLVESGGGLVQAGVSLRLSCAASGFIFSFNAMGWYRQAPGKERELVAAISRSGGSTRYADSVKGRFTISRDNAKNTVYLQMNCLKPEDTAVYYCNARSPYYSYLLHAYRLFDYWGQGTQVTVSS | high polyreactivity
6 | QVQLVESGGGLVQAGGSLRLSCAASGITFYVYAMGWYRQAPGKERELVAAINYDSGSTYYADSVKGRFTISRDNAKNTVYLQMNSLKPEDTAVYYCATDGVNPFYAYDFWGQGTQVTVSS | low polyreactivity
7 | QVQLVESGGGLVQAGGSLRLSCAASGFIFRFNAMGWYRQAPGKEREMVAAISWRGGSTYYADSVKGRFTISRDNAKNTVYLQMNSLKPEDTAVYYCAADVTRYYRYGYNYWGQGSQVTVSS | high polyreactivity
8 | QVQLVESGGGLVQAGGSLSLSCAASGLTFTGNAMGWYRQAPGKERELVAAISWSGGSTYYADSVKGRYTISRDNAKNTVYLQMNSLKPEDTAVYYCGDPDSRYDYWGQGTQVTVSS | high polyreactivity
9 | QVQLVESGGGLVQAGGSLRLSCAASGSTFDVNAMGWYRQAPGKERELVAAISWNSGSTYYADSVKGRFTISRDNAKNTVYLQMNSLKPEDTAVYYCAATYGTGRRSKYGYWGQGTQVTVSS | high polyreactivity
10 | QVQLVESGGGLVQAGGSLRLSCAASGSIIWYYAMVWYRQAPGIERELGAAMTGTGGNTYYADSVKGRFTLSRDNAKNTVYLQMNSLKPEDTAVYYCDVRAYPSYPRGVYAYYYWGHGTQVTVSS | high polyreactivity
11 | QVQLVESGGGLVQAGGSLRLSCAASGFIFDPNAMGWYRQAPGRERELVAAISSSGGRTYYADSVKGRFTISRDNAKNTVYLQMNSLKPEDTAVYYCATDTSVQGQEYDYWGQGTQVTVSS | low polyreactivity
12 | QVQLVESGGGFVQAGASLRLSCAASGRTCHGYAMGWYRQAPGKERDLVAAINASGGRTYYAESVKGRFTISRDNAKNTVYLLMNSLNPEDTAVYYCGVYSASFRYGLANDYWGQGTQVTVSS | high polyreactivity
13 | QVQLVESGGGLVQAGGSLRLSCAASGRTFTYYAMGWYRQAPGKQRELVASINQNGGDTYYADSVKGRFTLSRDNAKNTDYLQMNSLKPADTAVYYCAAEAGYYVQTVAVDMGYWGQGTQVTVSS | low polyreactivity
14 | QVQLVESGGGLVQAGGSLRLSCAASGFTFTWYAMGWYRQAPGKERELVATISRSGGRTYYADSVKGRFTISRDNAKNTVYLQMNSLKPEDTAVYYCAADTRNYPRYDYWGQGTQVTVSS | high polyreactivity
15 | QVQLVESGGGLVQAGGSLRLSCAASGYTFLIYAMGGYRQAPGKERELVASISRSGGSTYYADSVKGRFTISRDNAKKTVYLQMNSLKPEDTAVYYCAARNPYRYFYNYEYWGQGTQVTVSS | low polyreactivity
16 | QVQLVESGGGLVQAGGSLRLSCAASGFTFSGNTMGWSRQAPGKERELVATISRTGGITYYADSVKGRFTISRDNAKNTVYLQMNSLKPEDTAVYYCNRRYYYFVYPDDYWGQGTQVTVSS | high polyreactivity

Row | Sequence | polyreactivity (PSR sort gate)
17 | QVQLVESGGGLVQAGGSLRLSCAASGRIFRYNAMGWYRQAPGKERELVASITSAGSTIYADSVKGRFTISRDNAKNTVYLQMNSLKPEDTAVYYCNKRRAYGYYLFDYWGQGTQVTVSS | high polyreactivity
18 | QVQLVESGGGLVQAGGSLRLSCAASGITFYGYAMGWYRQAPGKERELVAVITSSGSSTYYADSVKGRFTISRDNAKNTVYLQMNSLKPEDTAVYYCNARPGRRSLRSRTYDYWGQGTQVTVSS | high polyreactivity
19 | QVQLVESGGGLVQAGGSLRLSCDASGFIFNYYVMGWYRQAPGKERELVAAISRSGGSTYYADSVKGRFTISRDNAKNTVYLQKNSLKTEDTAVYYCAAEYGYGKRAYDSWGQGTQVTVSS | high polyreactivity
20 | QVQLVESGGGIVQAGGSLRLSCAASGRIFVYNTMGWYRQAPGKEREFVAALSWRGGRTYYADSVKGRFTISRDNAKNTVYLQKNSLKPEDTAVYYCGADLKYYGYDYWGQGTHVTVSS | high polyreactivity
21 | QVQLVESGGGLVQAGGSLRLSCAASGRIFTYNTMGWYRQAPGKERELVAAIRTGGSTNYADSVKGRFTISRDNAKNTVYLQMNSLKPEDTAVYYCNTVRHSSSVYWYDYWGQGTQVTVSS | low polyreactivity
22 | QVQLVESGGGLVQAGGSLRLSCAASGLTFGTNAMGWYRQAPGKERELVAAISTSSGSTYYADSVKGRFTISRDNAKNTVYLQMNSLKPEDTAVYYCAAVTVTKLSYYRYYYWGQGTQVTVSS | low polyreactivity
23 | QVQLVESGGGLVQAGGSLRLSCAASGLIFDSYAMGWDRQAPRKERELVAAITYTGGSTYYADSVKGRFTISRDNAKNSVYLQMNSLKPEDTAVYYCAARRQRERYGYWGQGTQVTVSS | high polyreactivity
24 | QVQLVESGGGLVQAGGSLRLSCAASGSIFGRYGMGWYRQAPGKERELVAAITSGTRTNYADSVKGRFTISRDNAKTTVYLQMNSLKPEDTAVYYCNALRLRGNYEYGYWGQGTQVTVSS | low polyreactivity
25 | QVQLVESGGGLVQAGGSLRLSCAASGSTFGDNAMGSYRQAPGKERELVAAISSGGGSTYYADSVKGRFTISRDNAKNTVYLQMNSLKPEDTAVYYCAADVTLTLYRYILDYWGQGTQVTVSS | low polyreactivity
26 | QVQLVESGGGLVQAGGSLRLSCAASGRIFLYNAMGWYRQAPGKEREFVATISYSGGRTNYADSVKGRFTISRDNAKNTVYLQMNSLKPEDTAVYYCAARWPWFYAHAYDYWGQGTQVTVSS | high polyreactivity
27 | QVQLVESGGGLVQAGGSLRLSCAASGSTFRDYAMGWYRQAPGKERELVAAITSGGTTDYADSVKGRFTISRYNAKNTVYLQMISLKPEDTAVYYCNKDGVVAGYQYDYWGQGTQVTVSS | low polyreactivity
28 | QVQLVESGGGLVQAGGSLRLSCAPSAFTFKYYSMGWYRHTPGKESELVAVISWSGGSTYYADSVKGRFTISRDYAKNTVYLHMNSQKPEDTAVYYCAAYERKFYTVSRWYKLDYWGQGTQVTVSS | high polyreactivity
29 | QVQLVESGGGLVQAGGILRLSCAASGSIFNRNAMGWYRQAPGKEREFVADISWSGGSTYYADSVKGRFTISRDNAKNTVYLQMNSLKPEDTAVYYCAAKSTGRWWRAGYVYWGQGTQVTVSS | high polyreactivity
30 | QVQLVESGGGLVQAGGSLRLSCAASGRIFDYYTMGGYRQAPGKETELVAAINWSGGSTYYADSVKGRFTISRDNAKNTVYLQMNSLKPEDTAVYYCATLSYGREYGYWGQGTQVTVSS | low polyreactivity
31 | QVQLVESAGGLVQAGGSLSLSCAASGFTFYRNAMGWYRQAPGQERELVAAISRSGGRTYYADSVKGRFTISRDNAKNTVYLQMNSLKPEDTSVYYCAVYVTRDSGWWLYDYWGQGTQVTVSS | high polyreactivity
